Assay results from patent US11833164B2, “Methods of treating Fabry disease in patients having a mutation in the GLA gene” (Amicus Therapeutics, Inc., priority 2019, dated 2023).

B1: K130M (protein)
chain: MQLRNPELHLGCALALRFLALVSWDIPGARALDNGLARTPTMGWLHWERFMCNLDCQEEPDSCISEKLFMEMAELMVSEGWKDAGYEYLCIDDCWMAPQRDSEGRLQADPQRFPHGIRQLANYVHSKGLMLGIYADVGNKTCAGFPGSFGYYDIDAQTFADWGVDLLKFDGCYCDSLENLADGYKHMSLALNRTGRSIVYSCEWPLYMWPFQKPNYTEIRQYCNHWRNFADIDDSWKSIKSILDWTSFNQERIVDVAGPGGWNDPDMLVIGNFGLSWNQQVTQMALWAIMAAPLFMSNDLRHISPQAKALLQDKDVIAINQDPLGKQGYQLRQGDNFEVWERPLSGLAWAVAMINRQEIGGPRSYTIAVASLGKGVACNPACFITQLLPVKRKLGFYEWTSRLRSHINPTGTVLLQLENTMQMSLKDLL
B2: I133T (protein)
chain: MQLRNPELHLGCALALRFLALVSWDIPGARALDNGLARTPTMGWLHWERFMCNLDCQEEPDSCISEKLFMEMAELMVSEGWKDAGYEYLCIDDCWMAPQRDSEGRLQADPQRFPHGIRQLANYVHSKGLKLGTYADVGNKTCAGFPGSFGYYDIDAQTFADWGVDLLKFDGCYCDSLENLADGYKHMSLALNRTGRSIVYSCEWPLYMWPFQKPNYTEIRQYCNHWRNFADIDDSWKSIKSILDWTSFNQERIVDVAGPGGWNDPDMLVIGNFGLSWNQQVTQMALWAIMAAPLFMSNDLRHISPQAKALLQDKDVIAINQDPLGKQGYQLRQGDNFEVWERPLSGLAWAVAMINRQEIGGPRSYTIAVASLGKGVACNPACFITQLLPVKRKLGFYEWTSRLRSHINPTGTVLLQLENTMQMSLKDLL
B3: A135G (protein)
chain: MQLRNPELHLGCALALRFLALVSWDIPGARALDNGLARTPTMGWLHWERFMCNLDCQEEPDSCISEKLFMEMAELMVSEGWKDAGYEYLCIDDCWMAPQRDSEGRLQADPQRFPHGIRQLANYVHSKGLKLGIYGDVGNKTCAGFPGSFGYYDIDAQTFADWGVDLLKFDGCYCDSLENLADGYKHMSLALNRTGRSIVYSCEWPLYMWPFQKPNYTEIRQYCNHWRNFADIDDSWKSIKSILDWTSFNQERIVDVAGPGGWNDPDMLVIGNFGLSWNQQVTQMALWAIMAAPLFMSNDLRHISPQAKALLQDKDVIAINQDPLGKQGYQLRQGDNFEVWERPLSGLAWAVAMINRQEIGGPRSYTIAVASLGKGVACNPACFITQLLPVKRKLGFYEWTSRLRSHINPTGTVLLQLENTMQMSLKDLL
B4: A135E (protein)
chain: MQLRNPELHLGCALALRFLALVSWDIPGARALDNGLARTPTMGWLHWERFMCNLDCQEEPDSCISEKLFMEMAELMVSEGWKDAGYEYLCIDDCWMAPQRDSEGRLQADPQRFPHGIRQLANYVHSKGLKLGIYEDVGNKTCAGFPGSFGYYDIDAQTFADWGVDLLKFDGCYCDSLENLADGYKHMSLALNRTGRSIVYSCEWPLYMWPFQKPNYTEIRQYCNHWRNFADIDDSWKSIKSILDWTSFNQERIVDVAGPGGWNDPDMLVIGNFGLSWNQQVTQMALWAIMAAPLFMSNDLRHISPQAKALLQDKDVIAINQDPLGKQGYQLRQGDNFEVWERPLSGLAWAVAMINRQEIGGPRSYTIAVASLGKGVACNPACFITQLLPVKRKLGFYEWTSRLRSHINPTGTVLLQLENTMQMSLKDLL
B5: L131V (protein)
chain: MQLRNPELHLGCALALRFLALVSWDIPGARALDNGLARTPTMGWLHWERFMCNLDCQEEPDSCISEKLFMEMAELMVSEGWKDAGYEYLCIDDCWMAPQRDSEGRLQADPQRFPHGIRQLANYVHSKGLKVGIYADVGNKTCAGFPGSFGYYDIDAQTFADWGVDLLKFDGCYCDSLENLADGYKHMSLALNRTGRSIVYSCEWPLYMWPFQKPNYTEIRQYCNHWRNFADIDDSWKSIKSILDWTSFNQERIVDVAGPGGWNDPDMLVIGNFGLSWNQQVTQMALWAIMAAPLFMSNDLRHISPQAKALLQDKDVIAINQDPLGKQGYQLRQGDNFEVWERPLSGLAWAVAMINRQEIGGPRSYTIAVASLGKGVACNPACFITQLLPVKRKLGFYEWTSRLRSHINPTGTVLLQLENTMQMSLKDLL
B6: K130Q (protein)
chain: MQLRNPELHLGCALALRFLALVSWDIPGARALDNGLARTPTMGWLHWERFMCNLDCQEEPDSCISEKLFMEMAELMVSEGWKDAGYEYLCIDDCWMAPQRDSEGRLQADPQRFPHGIRQLANYVHSKGLQLGIYADVGNKTCAGFPGSFGYYDIDAQTFADWGVDLLKFDGCYCDSLENLADGYKHMSLALNRTGRSIVYSCEWPLYMWPFQKPNYTEIRQYCNHWRNFADIDDSWKSIKSILDWTSFNQERIVDVAGPGGWNDPDMLVIGNFGLSWNQQVTQMALWAIMAAPLFMSNDLRHISPQAKALLQDKDVIAINQDPLGKQGYQLRQGDNFEVWERPLSGLAWAVAMINRQEIGGPRSYTIAVASLGKGVACNPACFITQLLPVKRKLGFYEWTSRLRSHINPTGTVLLQLENTMQMSLKDLL
B7: I133L (protein)
chain: MQLRNPELHLGCALALRFLALVSWDIPGARALDNGLARTPTMGWLHWERFMCNLDCQEEPDSCISEKLFMEMAELMVSEGWKDAGYEYLCIDDCWMAPQRDSEGRLQADPQRFPHGIRQLANYVHSKGLKLGLYADVGNKTCAGFPGSFGYYDIDAQTFADWGVDLLKFDGCYCDSLENLADGYKHMSLALNRTGRSIVYSCEWPLYMWPFQKPNYTEIRQYCNHWRNFADIDDSWKSIKSILDWTSFNQERIVDVAGPGGWNDPDMLVIGNFGLSWNQQVTQMALWAIMAAPLFMSNDLRHISPQAKALLQDKDVIAINQDPLGKQGYQLRQGDNFEVWERPLSGLAWAVAMINRQEIGGPRSYTIAVASLGKGVACNPACFITQLLPVKRKLGFYEWTSRLRSHINPTGTVLLQLENTMQMSLKDLL
B8: K130N (protein)
chain: MQLRNPELHLGCALALRFLALVSWDIPGARALDNGLARTPTMGWLHWERFMCNLDCQEEPDSCISEKLFMEMAELMVSEGWKDAGYEYLCIDDCWMAPQRDSEGRLQADPQRFPHGIRQLANYVHSKGLNLGIYADVGNKTCAGFPGSFGYYDIDAQTFADWGVDLLKFDGCYCDSLENLADGYKHMSLALNRTGRSIVYSCEWPLYMWPFQKPNYTEIRQYCNHWRNFADIDDSWKSIKSILDWTSFNQERIVDVAGPGGWNDPDMLVIGNFGLSWNQQVTQMALWAIMAAPLFMSNDLRHISPQAKALLQDKDVIAINQDPLGKQGYQLRQGDNFEVWERPLSGLAWAVAMINRQEIGGPRSYTIAVASLGKGVACNPACFITQLLPVKRKLGFYEWTSRLRSHINPTGTVLLQLENTMQMSLKDLL
B9: I133V (protein)
chain: MQLRNPELHLGCALALRFLALVSWDIPGARALDNGLARTPTMGWLHWERFMCNLDCQEEPDSCISEKLFMEMAELMVSEGWKDAGYEYLCIDDCWMAPQRDSEGRLQADPQRFPHGIRQLANYVHSKGLKLGVYADVGNKTCAGFPGSFGYYDIDAQTFADWGVDLLKFDGCYCDSLENLADGYKHMSLALNRTGRSIVYSCEWPLYMWPFQKPNYTEIRQYCNHWRNFADIDDSWKSIKSILDWTSFNQERIVDVAGPGGWNDPDMLVIGNFGLSWNQQVTQMALWAIMAAPLFMSNDLRHISPQAKALLQDKDVIAINQDPLGKQGYQLRQGDNFEVWERPLSGLAWAVAMINRQEIGGPRSYTIAVASLGKGVACNPACFITQLLPVKRKLGFYEWTSRLRSHINPTGTVLLQLENTMQMSLKDLL

Test system: mutant form of α-Gal A expressed in HEK-293 cells
Assay: HEK assay (GLP HEK / Migalastat Amenability Assay): α-Gal A activity in lysates of transiently transfected HEK-293 cells incubated with or without 10 μM migalastat
Type: cell-based, human
Conditions: for Absolute increase (% WT): 10 μM migalastat versus baseline; for Relative increase: 10 μM migalastat α-Gal A activity relative to baseline; for 10 μM migalastat α-Gal A activity (% WT): 5 days; for 10 μM migalastat α-Gal A activity (% WT) / Baseline α-Gal A activity (% WT): percentage of baseline wild-type α-Gal A activity; for 10 μM migalastat α-Gal A activity (% WT) / Baseline α-Gal A activity (% WT) / Baseline α-Gal A activity / 10 μM migalastat α-Gal A activity: mean ± SEM; for Baseline α-Gal A activity (% WT): absence of migalastat; for Baseline α-Gal A activity / 10 μM migalastat α-Gal A activity: lysates of HEK-293 cells transfected with the mutant form; for Baseline α-Gal A activity: incubated 5 days in the absence of migalastat; for 10 μM migalastat α-Gal A activity: incubated 5 days with 10 μM migalastat
Protocol: Such mutations or variants are also referred to herein as “HEK assay amenable” mutations or variants.
The α-Gal A activity is expressed as the nmoles of free 4-MU released per milligram of protein per hour (nmol/mg/hr).
In Table 7, values for the mean±standard error of the mean (SEM) were calculated. nmol/mg/hr indicates “nmoles of free 4-MU released per mg of protein per hour”. WT indicates “wild-type”. NC indicates “not calculable”. N/A indicates “not applicable”.

Molecule | Absolute increase (% WT) | Relative increase | 10 μM migalastat α-Gal A activity (% WT) | Baseline α-Gal A activity (% WT) | Baseline α-Gal A activity [nmol/mg/h] | 10 μM migalastat α-Gal A activity [nmol/mg/h]
B1 | 10.9 | 1.3 | 41.4 ± 2.6 | 30.5 ± 2.1 | 12335 ± 890 | 16496 ± 921
B2 | 15.0 | 2.4 | 25.8 ± 1.1 | 10.8 ± 1 | 4362 ± 397 | 10255 ± 335
B3 | 16.1 | 1.2 | 90 ± 3.6 | 73.9 ± 3.8 | 29959 ± 2193 | 36552 ± 2309
B4 | 7.4 | 1.3 | 32.5 ± 1.6 | 25.1 ± 1.5 | 10143 ± 752 | 12954 ± 678
B5 | 12.7 | 1.3 | 53.2 ± 5.3 | 40.5 ± 2.8 | 18644 ± 1664 | 24913 ± 3151
B6 | 12.0 | 1.4 | 47.8 ± 3.1 | 35.8 ± 2.6 | 11880 ± 450 | 16001 ± 701
B7 | 17.5 | 1.3 | 78.2 ± 3.1 | 60.7 ± 2.7 | 24431 ± 1181 | 31550 ± 1420
B8 | 10.1 | 1.5 | 31.5 ± 3 | 21.5 ± 1.9 | 8597 ± 678 | 12595 ± 989
B9 | 21.9 | 1.2 | 118.1 ± 5.1 | 96.2 ± 3.7 | 38738 ± 1624 | 47299 ± 1885
